{"source": "paper PMC8930183", "about": "“Structure of the Pf12 and Pf41 heterodimeric complex of Plasmodium falciparum 6-cysteine proteins” (FEMS Microbes, 2022)", "binders": {"B1": {"name": "nanobody G12 (VHH)", "VHH": "QVQLQESGGGLVQPGGSLRLSCAASGGTIRSDSMGWFRQVPKKEREFVGMLTYMGPVYTADSVKGRFAISRDNVKNTVYLQMNNLQPDDTAVYYCAVHVSGVYYYEDSYRYWGQGTQVTVSS", "notes": "alpaca, immunised with Pf12-Pf41 complex; Pf41-specific; source: E. coli WK6, periplasmic extract, purified (HisTrap, SEC)"}, "B2": {"name": "nanobody H2 (VHH)", "VHH": "QVQLQESGGGSVQAGGSLRLSCTTSRRTRNTHAMGWFRQAPGKEREFVAAISWIDSSTYYADSVKGRFTMSGGNARNTVYLQMNSLEPEDTAVYYCAAGSVVAGFWEEVGYDYWGQGTQVTVSS", "notes": "alpaca, immunised with Pf12-Pf41 complex; Pf12-specific (D1 domain); source: E. coli WK6, periplasmic extract, purified (HisTrap, SEC)"}, "B3": {"name": "Pf12 D1D2 (residues 28-304), untagged (domain or fragment, Plasmodium falciparum, UniProt C6KSX0 28-304, looked up)", "chain": "NLTCDFNDVYKLEFHPNQQTSVTKLCNLTPNVLEKVTIKCGSDKLNYNLYPPTCFEEVYASRNMMHLKKIKEFVIGSSMFMRRSLTPNKINEVSFRIPPNMMPEKPIYCFCENKKTITINGSNGNPSSKKDIINRGIVEIIIPSLNEKVKGCDFTTSESTIFSKGYSINEISNKSSNNQQDIVCTVKAHANDLIGFKCPSNYSVEPHDCFVSAFNLSGKNENLENKLKLTNIIMDHYNNTFYSRLPSLISDNWKFFCVCSKDNEKKLVFTVEASISS", "notes": "Pf12, Plasmodium falciparum 6-cysteine protein, residues N28-S304 (domains D1 and D2); lacks the signal peptide and the GPI-anchor site; After TEV cleavage three residues, GAS, remain at the N-terminus as cloning artefacts; N-glycosylation sites kept; treated with PNGase F before crystallisation; also called Pf12 wildtype; source: Spodoptera frugiperda 21 cells, secreted into growth media, …"}, "B4": {"name": "octa-histidine tagged Pf12 D1D2 (residues 28-304) (domain or fragment)", "chain": "B3 chain", "notes": "Pf12, Plasmodium falciparum 6-cysteine protein, residues N28-S304 (domains D1 and D2); TEV-cleavable tag left on; loaded on NTA sensors; also called tagged wildtype Pf12; source: Spodoptera frugiperda 21 cells, secreted into growth media, purified as tagged protein (Ni-IMAC, SEC); not shown: His8, N-terminal, kept"}}, "conditions_in_all_cases": "both partners purified", "key": {"[1]": {"target": "T1, Pf41 D1D2 (residues 21-368), untagged (Plasmodium falciparum, UniProt Q8I1Y0)", "T1 construct": "Pf41, Plasmodium falciparum 6-cysteine protein, residues K21-S368 (D1 with the inserted-domain-like region ID, and D2); lacks the signal peptide and ten C-terminal residues; After TEV cleavage three residues, GAS, remain at the N-terminus as cloning artefacts; N-glycosylation sites kept; treated with PNGase F before crystallisation; also called Pf41 wildtype; source: Spodoptera frugiperda 21 …", "test": "BLI; Octet RED96e; nanobodies loaded on NTA sensors; untagged Pf12 or Pf41 (6-200 nM) or their domains in solution; PBS pH 7.4, 0.1% BSA, 0.05% TWEEN-20, 25°C; global 1:1 fit"}, "[2]": {"target": "T2, Pf41 D2 (residues I242-S368) (Plasmodium falciparum 3D7, UniProt Q8I1Y0)", "T2 construct": "Pf41, Plasmodium falciparum, C-terminal 6-cys domain D2, residues I242-S368; also called Pf41 D2 domain; source: Spodoptera frugiperda 21 cells, purified by the same protocol as Pf41 D1D2; not shown: His8, N-terminal, cleaved", "test": "BLI; Octet RED96e; nanobodies loaded on NTA sensors; untagged Pf12 or Pf41 (6-200 nM) or their domains in solution; PBS pH 7.4, 0.1% BSA, 0.05% TWEEN-20, 25°C; global 1:1 fit"}, "[3]": {"target": "T3, Pf12 D1 (residues N28-L172) (Plasmodium falciparum, UniProt C6KSX0)", "T3 construct": "Pf12, Plasmodium falciparum, N-terminal 6-cys domain D1, residues N28-L172; also called Pf12 D1 domain; source: Spodoptera frugiperda 21 cells, purified by the same protocol as Pf12 D1D2; not shown: His8, N-terminal, cleaved", "test": "BLI; Octet RED96e; nanobodies loaded on NTA sensors; untagged Pf12 or Pf41 (6-200 nM) or their domains in solution; PBS pH 7.4, 0.1% BSA, 0.05% TWEEN-20, 25°C; global 1:1 fit"}, "[4]": {"target": "T4, Pf12 D1D2 (residues 28-304), untagged (Plasmodium falciparum, UniProt C6KSX0)", "T4 construct": "Pf12, Plasmodium falciparum 6-cysteine protein, residues N28-S304 (domains D1 and D2); lacks the signal peptide and the GPI-anchor site; After TEV cleavage three residues, GAS, remain at the N-terminus as cloning artefacts; N-glycosylation sites kept; treated with PNGase F before crystallisation; also called Pf12 wildtype; source: Spodoptera frugiperda 21 cells, secreted into growth media, …", "test": "BLI; Octet RED96e; nanobodies loaded on NTA sensors; untagged Pf12 or Pf41 (6-200 nM) or their domains in solution; PBS pH 7.4, 0.1% BSA, 0.05% TWEEN-20, 25°C; global 1:1 fit"}, "[5]": {"target": "T5, Pf12 D2 (residues E174-S304) (Plasmodium falciparum, UniProt C6KSX0)", "T5 construct": "Pf12, Plasmodium falciparum, C-terminal 6-cys domain D2, residues E174-S304; also called Pf12 D2 domain; source: Spodoptera frugiperda 21 cells, purified by the same protocol as Pf12 D1D2; not shown: His8, N-terminal, cleaved", "test": "BLI; Octet RED96e; nanobodies loaded on NTA sensors; untagged Pf12 or Pf41 (6-200 nM) or their domains in solution; PBS pH 7.4, 0.1% BSA, 0.05% TWEEN-20, 25°C; global 1:1 fit"}, "[6]": {"target": "T6, Pf41 D1D2 (residues 21-368), untagged (Plasmodium falciparum, UniProt Q8I1Y0 21-368)", "T6 construct": "Pf41, Plasmodium falciparum 6-cysteine protein, residues K21-S368 (D1 with the inserted-domain-like region ID, and D2); lacks the signal peptide and ten C-terminal residues; After TEV cleavage three residues, GAS, remain at the N-terminus as cloning artefacts; N-glycosylation sites kept; treated with PNGase F before crystallisation; also called Pf41 wildtype; source: Spodoptera frugiperda 21 …", "T6 sequence (looked up)": "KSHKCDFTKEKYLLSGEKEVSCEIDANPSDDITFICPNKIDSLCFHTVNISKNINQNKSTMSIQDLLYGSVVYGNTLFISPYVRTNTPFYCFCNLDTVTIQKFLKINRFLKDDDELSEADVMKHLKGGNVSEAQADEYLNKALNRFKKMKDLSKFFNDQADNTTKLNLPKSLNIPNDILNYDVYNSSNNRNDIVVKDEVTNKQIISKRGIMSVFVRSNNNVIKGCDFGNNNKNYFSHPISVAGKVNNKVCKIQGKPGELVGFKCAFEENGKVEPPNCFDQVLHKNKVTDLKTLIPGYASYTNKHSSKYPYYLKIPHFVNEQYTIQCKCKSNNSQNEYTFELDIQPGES", "test": "AUC; sedimentation velocity, 20°C, 50 000 rpm, absorbance at 280 nm, c(s) analysis with SEDFIT"}, "[7]": {"target": "T7, octa-histidine tagged Pf41 D1D2 (residues 21-368) (Plasmodium falciparum, UniProt Q8I1Y0 21-368)", "T7 construct": "Pf41, Plasmodium falciparum 6-cysteine protein, residues K21-S368; TEV-cleavable tag left on; loaded on NTA sensors; also called tagged wildtype Pf41; source: Spodoptera frugiperda 21 cells, secreted into growth media, purified as tagged protein (Ni-IMAC, SEC); not shown: His8, N-terminal, kept", "T7 sequence": "T6 sequence (looked up)", "test": "BLI; Octet RED96e; octa-histidine tagged Pf41 loaded on NTA sensors; untagged Pf12 wildtype, mutant or single domain 31-1000 nM; PBS pH 7.4, 0.1% BSA, 0.05% TWEEN-20, 25°C; read-out relative maximum response against wildtype"}, "Pf41 D1D2 E367A": {"target": "T8, Pf41 D1D2 E367A (Plasmodium falciparum, UniProt Q8I1Y0 21-368, E367A)", "T8 construct": "Pf41, Plasmodium falciparum, residues K21-S368 (D1D2); source: Spodoptera frugiperda 21 cells, purified (Ni-IMAC, TEV cleavage, SEC); not shown: His8, N-terminal, cleaved", "T8 sequence": "T6 sequence (looked up) with E347A", "test": "BLI; Octet RED96e; octa-histidine tagged Pf12 loaded on NTA sensors; untagged Pf41 wildtype or mutant 31-1000 nM; PBS pH 7.4, 0.1% BSA, 0.05% TWEEN-20, 25°C; read-out relative maximum response against wildtype"}, "[8]": {"target": "T6, Pf41 D1D2 (residues 21-368), untagged", "test": "BLI; Octet RED96e; octa-histidine tagged Pf12 loaded on NTA sensors; untagged Pf41 wildtype or mutant 31-1000 nM; PBS pH 7.4, 0.1% BSA, 0.05% TWEEN-20, 25°C; read-out relative maximum response against wildtype"}, "Pf41 D1D2 N339A": {"target": "T9, Pf41 D1D2 N339A (Plasmodium falciparum, UniProt Q8I1Y0 21-368, N339A)", "T9 construct": "Pf41, Plasmodium falciparum, residues K21-S368 (D1D2); source: Spodoptera frugiperda 21 cells, purified (Ni-IMAC, TEV cleavage, SEC); not shown: His8, N-terminal, cleaved", "T9 sequence": "T6 sequence (looked up) with N319A", "test": "BLI; Octet RED96e; octa-histidine tagged Pf12 loaded on NTA sensors; untagged Pf41 wildtype or mutant 31-1000 nM; PBS pH 7.4, 0.1% BSA, 0.05% TWEEN-20, 25°C; read-out relative maximum response against wildtype"}, "Pf41 D1D2 H336A": {"target": "T10, Pf41 D1D2 H336A (Plasmodium falciparum, UniProt Q8I1Y0 21-368, H336 to alanine)", "T10 construct": "Pf41, Plasmodium falciparum, residues K21-S368 (D1D2); source: Spodoptera frugiperda 21 cells, purified (Ni-IMAC, TEV cleavage, SEC); not shown: His8, N-terminal, cleaved", "T10 sequence": "T6 sequence (looked up) with H316A", "test": "BLI; Octet RED96e; octa-histidine tagged Pf12 loaded on NTA sensors; untagged Pf41 wildtype or mutant 31-1000 nM; PBS pH 7.4, 0.1% BSA, 0.05% TWEEN-20, 25°C; read-out relative maximum response against wildtype"}, "Pf41 D1D2 F166L": {"target": "T11, Pf41 D1D2 F166L (Plasmodium falciparum, UniProt Q8I1Y0 21-368, F166 L)", "T11 construct": "Pf41, Plasmodium falciparum, residues K21-S368 (D1D2); source: Spodoptera frugiperda 21 cells, purified (Ni-IMAC, TEV cleavage, SEC); not shown: His8, N-terminal, cleaved", "T11 sequence": "T6 sequence (looked up) with F146L", "test": "BLI; Octet RED96e; octa-histidine tagged Pf12 loaded on NTA sensors; untagged Pf41 wildtype or mutant 31-1000 nM; PBS pH 7.4, 0.1% BSA, 0.05% TWEEN-20, 25°C; read-out relative maximum response against wildtype"}, "Pf41 D1D2 E340A": {"target": "T12, Pf41 D1D2 E340A (Plasmodium falciparum, UniProt Q8I1Y0 21-368, E340A)", "T12 construct": "Pf41, Plasmodium falciparum, residues K21-S368 (D1D2); source: Spodoptera frugiperda 21 cells, purified (Ni-IMAC, TEV cleavage, SEC); not shown: His8, N-terminal, cleaved", "T12 sequence": "T6 sequence (looked up) with E320A", "test": "BLI; Octet RED96e; octa-histidine tagged Pf12 loaded on NTA sensors; untagged Pf41 wildtype or mutant 31-1000 nM; PBS pH 7.4, 0.1% BSA, 0.05% TWEEN-20, 25°C; read-out relative maximum response against wildtype"}}, "note": "Positions count from the first letter of the chain named."}
{"binder": "B1", "values": [{"measurement": "binding result", "setting": "[1]", "value": "binds"}, {"measurement": "binding result", "setting": "[2]", "value": "no binding"}]}
{"binder": "B2", "values": [{"measurement": "binding result", "setting": "[1]", "value": "no binding"}, {"measurement": "binding result", "setting": "[3]", "value": "binds"}, {"measurement": "binding result", "setting": "[4]", "value": "binds"}, {"measurement": "binding result", "setting": "[5]", "value": "no binding"}]}
{"binder": "B3", "values": [{"measurement": "binding result", "setting": "[6]", "value": "binds"}, {"measurement": "binding result", "setting": "[7]", "value": "binds"}]}
{"binder": "B4", "values": [{"measurement": "binding result", "setting": "Pf41 D1D2 E367A", "value": "binds"}, {"measurement": "binding result", "setting": "[8]", "value": "binds"}, {"measurement": "binding result", "setting": "Pf41 D1D2 N339A", "value": "binds"}, {"measurement": "binding result", "setting": "Pf41 D1D2 H336A", "value": "binds"}, {"measurement": "binding result", "setting": "Pf41 D1D2 F166L", "value": "binds"}, {"measurement": "binding result", "setting": "Pf41 D1D2 E340A", "value": "binds"}]}
